The data set has as its target T1, RBFOX1 RRM (UniProt Q9NWB1 109-208).
T1 sequence: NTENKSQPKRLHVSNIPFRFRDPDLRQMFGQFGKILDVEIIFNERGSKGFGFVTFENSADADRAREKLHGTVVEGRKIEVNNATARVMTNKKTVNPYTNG
Put plainly: NMR 1H-15N HSQC titration; 313 K; very large perturbations; switchSENSE titration: T100 (10 mM Tris-HCl pH 7.4, 100 mM NaCl, 0.05% Tween20), 37 C; sizing: T40 (same with 40 mM NaCl), 37 C; NMR: NMR buffer (RNA in T40), 313 K. The note with it: protein: recombinant; tags: N-terminal 6xHis; single strand.

We go through 1 molecule from paper PMC6453957, “Specific inhibition of splicing factor activity by decoy RNA oligonucleotides”.

Consider UGCAUGU (ssRNA) [RBFOXi NMR RNA], for which the binding result is “binds”.
